Assays:
[1] = target: HLA-DR (L243 antigen) on canine lymphocytes and canine lymphoma cells (dog); experiment: flow cytometry, dog lymphoma aspirate; none 3.24; control antibody
[2] = target: HLA-DR (L243 antigen) on canine lymphocytes and canine lymphoma cells (dog); experiment: flow cytometry, dog lymphoma aspirate; none 4.48; control antibody
[3] = target: HLA-DR (human leukocyte antigen-DR) on human lymphoma and leukemia cells and human lymphocytes (human); experiment: indirect FACS, Raji cells, FITC-GAH Fc 2nd Ab; none 6.8; control antibody
[4] = target: HLA-DR (human leukocyte antigen-DR) on human lymphoma and leukemia cells and human lymphocytes (human); experiment: indirect FACS, Daudi cells, FITC-GAH Fc 2nd Ab; none 3.1; control antibody
[5] = target: HLA-DR (human leukocyte antigen-DR) on human lymphoma and leukemia cells and human lymphocytes (human); experiment: indirect FACS, Ramos cells, FITC-GAH Fc 2nd Ab; none 3.1; control antibody
[6] = target: HLA-DR (L243 antigen) on canine lymphocytes and canine lymphoma cells (dog); experiment: flow cytometry, canine lymphoma aspirate 150836; none 3.2; control antibody
[7] = target: HLA-DR (L243 antigen) on canine lymphocytes and canine lymphoma cells (dog); experiment: flow cytometry, canine lymphoma aspirate 150836; none 4.5; control antibody
[8] = target: HLA-DR (human leukocyte antigen-DR) on human lymphoma and leukemia cells and human lymphocytes (human); experiment: indirect FACS, Namalwa cells, FITC-GAH Fc 2nd Ab; none 2.5; control antibody
[9] = target: HLA-DR (human leukocyte antigen-DR) on human lymphoma and leukemia cells and human lymphocytes (human); experiment: indirect FACS, SU-DHL-6 cells, FITC-GAH Fc 2nd Ab; none 4.6; control antibody
[10] = target: HLA-DR (human leukocyte antigen-DR) on human lymphoma and leukemia cells and human lymphocytes (human); experiment: indirect FACS, WSU-FSCCL cells, FITC-GAH Fc 2nd Ab; none 2.6; control antibody
[11] = target: HLA-DR (human leukocyte antigen-DR) on human lymphoma and leukemia cells and human lymphocytes (human); experiment: indirect flow cytometry, RL cells, FITC-GAH Fc 2nd Ab; none 2.4; negative control antibody
[12] = target: HLA-DR (human leukocyte antigen-DR) on human lymphoma and leukemia cells and human lymphocytes (human); experiment: indirect flow cytometry, Raji cells, FITC-GAH Fc 2nd Ab; none 6.9; negative control antibody
[13] = target: HLA-DR (human leukocyte antigen-DR) on human lymphoma and leukemia cells and human lymphocytes (human); experiment: indirect flow cytometry, Daudi cells, FITC-GAH Fc 2nd Ab; none 3.2; negative control antibody
[14] = target: HLA-DR (human leukocyte antigen-DR) on human lymphoma and leukemia cells and human lymphocytes (human); experiment: indirect flow cytometry, Ramos cells, FITC-GAH Fc 2nd Ab; none 3.1; negative control antibody
[15] = target: HLA-DR (human leukocyte antigen-DR) on human lymphoma and leukemia cells and human lymphocytes (human); experiment: indirect flow cytometry, Namalwa cells, FITC-GAH 2nd Ab; none 2.52; control antibody (anti-CEA)
[16] = target: HLA-DR (human leukocyte antigen-DR) on human lymphoma and leukemia cells and human lymphocytes (human); experiment: indirect flow cytometry, Namalwa cells, FITC-GAH Fc 2nd Ab; none 2.6; negative control antibody
[17] = target: HLA-DR (human leukocyte antigen-DR) on human lymphoma and leukemia cells and human lymphocytes (human); experiment: indirect flow cytometry, SU-DHL-6 cells, FITC-GAH Fc 2nd Ab; none 4.6; negative control antibody
[18] = target: HLA-DR (human leukocyte antigen-DR) on human lymphoma and leukemia cells and human lymphocytes (human); experiment: indirect flow cytometry, WSU-FSCCL cells, FITC-GAH Fc 2nd Ab; none 2.7; negative control antibody

mean FL [1]: 3.24
% Positive [2]: 4.63%
geometric mean fluorescence [3]: 6.96
geometric mean fluorescence [4]: 3.16
geometric mean fluorescence [5]: 3.13
mean FL [6]: 3.2
% Positive [7]: 4.6%
geometric mean fluorescence [8]: 2.36
geometric mean fluorescence [9]: 4.94
geometric mean fluorescence [10]: 2.66
geometric mean fluorescence [11]: 2.8
geometric mean fluorescence [12]: 7
geometric mean fluorescence [13]: 3.2
geometric mean fluorescence [14]: 3.1
geometric mean fluorescence [15]: 2.49
geometric mean fluorescence [16]: 2.4
geometric mean fluorescence [17]: 4.9
geometric mean fluorescence [18]: 2.7
B1: hMN-14 (labetuzumab, humanized anti-carcinoembryonic antigen IgG1) (antibody, INN chains, looked up, V domains shown)
VH: EVQLVESGGGVVQPGRSLRLSCSASGFDFTTYWMSWVRQAPGKGLEWIGEIHPDSSTINYAPSLKDRFTISRDNAKNTLFLQMDSLRPEDTGVYFCASLYFGFPWFAYWGQGTPVTVSS
VL: DIQLTQSPSSLSASVGDRVTITCKASQDVGTSVAWYQQKPGKAPKLLIYWTSTRHTGVPSRFSGSGSGTDFTFTISSLQPEDIATYYCQQYSLYRSFGQGTKVEIKR

Reference: patent US20160355591A1
